Data on ten molecules can be found in patent US20190315843A1 (PROTHENA BIOSCIENCES, published 2019).

B1: humanized 5C1 H3L1 (antibody, V domains shown)
VH: QVQLVQSGAELKKPGSSVKVSCKASGYTFTNYWMNWVRQAPGQGLEWIGATNPNNGYTDYNQRFKDRATLTADKSTNTAYMELSSLRSEDTAVYFCASGGHLAYWGQGTLVTVSS
VL: DVVMTQSPLSLSVSPGEPASISCRSSQSLFHSKGNTYLHWYLQKPGQSPKLLINRVSNRFSGVPDRFSGSGSGTDFTLKISRVEAEDVGVYFCSQSAHVPWTFGGGTKVEIK
notes: The constant region is not specified
B2: humanized 5C1 H3L3 (antibody, V domains shown)
VH: B1 VH
VL: B1 VL with K50Q
notes: as for B1
B3: humanized 5C1 H1L1 (antibody, V domains shown)
VH: B1 VH with F95Y, S98R
VL: B1 VL
notes: as for B1
B4: humanized 5C1 H4L3 (antibody, V domains shown)
VH: B1 VH with F95Y
VL: B1 VL with K50Q
notes: The human constant region is not specified; also called h5C1_H4L3
B5: murine 5C1 antibody (antibody, mouse IgG1, V domains shown)
VH: QVQLQQSGAELAKPGTSVQMSCKASGYTFTNYWMNWIKARPGQGLEWIGATNPNNGYTDYNQRFKDKAILTADKSSNTAYMHLSSLTSEDSAVYFCASGGHLAYWGQGTVVTVSA
VL: B1 VL with S7I, S10Y, E17D, P18Q, R82G, V88L, V109L, K112R
notes: also called m5C1; mouse 5C1
B6: chimeric 5C1 antibody (antibody, V domains shown)
VH: B5 VH
VL: B1 VL with S7I, S10Y, E17D, P18Q, R82G, V88L, V109L, K112R
notes: also called Ch5C1
B7: humanized 5C1 H5L3 (antibody, V domains shown)
VH: B1 VH with A68V, L70I, F95Y
VL: B1 VL with K50Q
notes: The human constant region is not specified; also called h5C1_H5L3
B8: humanized 5C1 H3L4 (antibody, V domains shown)
VH: B1 VH
VL: B1 VL with V2I, K50Q, N54Y
notes: It was captured on an anti-human IgG chip, so it carries a human constant region, which is not specified; also called h5C1_H3L4
B9: humanized 5C1 H4L4 (antibody, V domains shown)
VH: B1 VH with F95Y
VL: B1 VL with V2I, K50Q, N54Y
notes: The human constant region is not specified; also called h5C1_H4L4
B10: humanized 5C1 H5L4 (antibody, V domains shown)
VH: B1 VH with A68V, L70I, F95Y
VL: B1 VL with V2I, K50Q, N54Y
notes: The human constant region is not specified; also called h5C1_H5L4

Substitutions are numbered along the chain they refer to.

As usually defined, the Kd is the free concentration of one partner at which half of the binding sites on the other are occupied at equilibrium, for simple one-to-one binding. In general, koff refers to the rate constant with which the complex falls apart. A high value points to a short-lived complex. For orientation: kon means the rate constant with which the complex forms. Lower therefore signals slower complex formation.

The target in one experiment is T1, wildtype human α-synuclein (human, UniProt P37840 1-140). Description: ELISA on α-synuclein, twofold dilution series of the antibody. A general note: ELISA stands for enzyme-linked immunosorbent assay.
With B1, the binding result was “binds”.

As to B2, the binding result was “binds”.

Consider B3, for which the binding result is “no binding (tested: 1000 (x axis has no unit))”.

A further experiment has as its target T1, wildtype human α-synuclein. In words: SPR (Biacore), antibody captured on anti-human IgG chip, alpha synuclein flowed over, 1:1 model, global fit. On the technique in general: SPR reads the build-up and loss of mass on a sensor chip optically.
Method: An anti-human IgG CMS Biacore chip was prepared following the protocol supplied by GE Healthcare.
Data was collected and double reference subtracted to account for drift and a small amount of nonspecific binding. The data was analyzed using BIAcore evaluation software using a 1:1 model and a global fit.
Take B4: binding was put at a Kd of 120 nM and the koff amounted to 0.0051 s⁻¹.

In the case of B5, the Kd was 68.7 nM, the koff was found to be 0.0051 s⁻¹ and the on-rate (kon) was 75000 M⁻¹ s⁻¹.

For the molecule B6, the equilibrium dissociation constant (Kd) was 86 nM and the koff was 0.0053 s⁻¹.

The molecule B7 registered a Kd of 283 nM.

In turn, B8 showed a Kd of 1240 nM.

B9 came in with a Kd of 601 nM.

As for B10, binding was put at a Kd of 1060 nM.
